The results in this text go back to PMC3212568.

The test has as its target β2m lacking the N-terminal six residues of the mature protein (human). The test is described as follows: SEC; analytical size exclusion chromatography of 1 mg/ml protein in phosphate buffered saline pH 7.3 at 25°C; monomer and dimer peaks.

On to “β2m lacking the N-terminal six residues of the mature protein (domain or fragment)”, for which the percent dimeric amounted to 4%.
